Columns and labels:
[1] = target: HER2 on cancer cells (MCF7, SKBR3, BT474, SKOV3, OVCAR3) (human) (UniProt P04626); assay: flow cytometry, 100 nM memAb trastuzumab on SKBR3 cells, secondary anti-kappa-647 (secondary alone: 330)
[2] = target: HER2 on cancer cells (MCF7, SKBR3, BT474, SKOV3, OVCAR3) (human) (UniProt P04626); assay: flow cytometry on OVCAR3 cells; retelling of FIG. 16 with a different last digit (1436 there)
[3] = target: HER2 on cancer cells (MCF7, SKBR3, BT474, SKOV3, OVCAR3) (human) (UniProt P04626); assay: flow cytometry, 100 nM memAb trastuzumab on MCF7 cells, secondary anti-kappa-647 (secondary alone: 338)
[4] = target: HER2 on cancer cells (MCF7, SKBR3, BT474, SKOV3, OVCAR3) (human) (UniProt P04626); assay: flow cytometry, 100 nM memAb trastuzumab on SKOV3 cells, secondary anti-kappa-647 (secondary alone: 370)
[5] = target: HER2 on cancer cells (MCF7, SKBR3, BT474, SKOV3, OVCAR3) (human) (UniProt P04626); assay: cell-based or functional assay
[6] = target: HER2 on cancer cells (MCF7, SKBR3, BT474, SKOV3, OVCAR3) (human) (UniProt P04626); assay: flow cytometry, 100 nM memAb trastuzumab on BT474 cells, secondary anti-kappa-647 (secondary alone: 392)
[7] = target: HER2 on cancer cells (MCF7, SKBR3, BT474, SKOV3, OVCAR3) (human) (UniProt P04626); assay: flow cytometry, 100 nM memAb trastuzumab on OVCAR3 cells, secondary anti-kappa-647 (secondary alone: 307)

meditope-enabled I83E trastuzumab IgG (antibody)
median fluorescence intensity (MFI) [1]: 34400
MFI [2]: 1440
median fluorescence intensity (MFI) [3]: 985
median fluorescence intensity (MFI) [4]: 43200
EC50 of Jurkat-NFAT-Luc meditope-CAR cell activation (luminescence), co-culture with BT474 [5]: 0.26 nM
EC50 of Jurkat-NFAT-Luc meditope-CAR cell activation (luminescence), co-culture with MCF7 [5]: 0.42 nM
EC50 of Jurkat-NFAT-Luc meditope-CAR cell activation (luminescence), co-culture with SKBR3 [5]: 0.83 nM
EC50 of Jurkat-NFAT-Luc meditope-CAR cell activation (luminescence), co-culture with SKOV3 [5]: 0.35 nM
IC50 of cancer cell viability, BT474 co-incubated with memAb trastuzumab and FabRack T cells, 3 days [5]: 0.33 nM
IC50 of cancer cell viability, MCF7 co-incubated with memAb trastuzumab and FabRack T cells, 3 days [5]: 0.069 nM
IC50 of cancer cell viability, SKBR3 co-incubated with memAb trastuzumab and FabRack T cells, 3 days [5]: 0.11 nM
IC50 of cancer cell viability, SKOV3 co-incubated with memAb trastuzumab and FabRack T cells, 3 days [5]: 0.046 nM
median fluorescence intensity (MFI) [6]: 31700
median fluorescence intensity (MFI) [7]: 1440
